Starred links: 1 amine or outer side, 2 acyl side, 3 side chain; linkers in the order of their positions; H or OH if unused. Positions of bridges follow the written chain, without caps; N, C: chain ends. Non-standard residues stand in square brackets, D forms with d. Residues, ends and D or L forms follow the SMILES beside them. Primed or numbered codes have the meaning given here. Chains are numbered I, II in the order given. No end group written: not given here. CO(CH2)2(OCH2CH2)17CO = O=C(CCOCCOCCOCCOCCOCCOCCOCCOCCOCCOCCOCCOCCOCCOCCOCCOCCOCCC(=O)[*:2])[*:1]; CO(CH2CH2O)9CH2CH2CO = O=C(CCOCCOCCOCCOCCOCCOCCOCCOCCOCCC(=O)[*:2])[*:1]; PEG12 = NCCOCCOCCOCCOCCOCCOCCOCCOCCOCCOCCOCCOCCC(=O)O; NMeF = CN[C@@H](Cc1ccccc1)C(=O)O; Ahp(2) = CCCCC[C@H](N)C(=O)O; NMeC = CN[C@@H](CS)C(=O)O; Ahp′ = not defined here
B1: GFs_c-Met-00014305-PEG17 dimer (peptide SEQ ID NO: 34, GFs_c-Met-00014336p; linker SEQ ID NO: 38) (peptide)
peptide: {CH2CO}-[NMeF]TAVS[NMeF]DED[Ahp(2)]PRWS[NMeC]
chain: GK[CO(CH2)2(OCH2CH2)17CO]KG
modifications: thioether I:N-I:15 (inferred); also: homodimer: two cyclic peptides joined by linker G-K-cPEG17c-K-G, peptide C-terminus on linker
B2: GFs_c-Met-00014318-PEG9 dimer (peptide SEQ ID NO: 34, GFs_c-Met-00014336p; linker SEQ ID NO: 36) (peptide)
peptide: {CH2CO}-[NMeF]TAVS[NMeF]DED[Ahp(2)]PRWS[NMeC]
chain: GK[CO(CH2CH2O)9CH2CH2CO]KG
modifications: thioether I:N-I:15 (inferred); also: homodimer: two cyclic peptides joined by linker G-K-cPEG9c-K-G, peptide C-terminus on linker
B3: Peptide complex No. 48 in Table 4 (peptide SEQ ID NO: 33, GFs_c-Met-00014300p; linker SEQ ID NO: 36) (peptide)
peptide: {CH2CO}-[NMeF]TAVS[NMeF]DPD[Ahp(2)]PRWS[NMeC]
chain: GK[CO(CH2CH2O)9CH2CH2CO]KG
modifications: thioether I:N-I:15 (inferred); also: homodimer of two cyclic peptides joined by linker, peptide C-terminus on linker

These molecules were tested against T1, c-Met (Homo sapiens, UniProt P08581) (assay: Phospho-c-Met AlphaLISA assay (c-Met agonist activity) in A431 cells). Conditions: c-Met phosphorylation (Tyr1234/1235) in A431 cells, 15 minutes of stimulation; maximum signal induced by HGF = 100%.
T1 construct: endogenous in cells; host or cells: A431 (human)
Type: cell-based
Description: To evaluate the activation potency (c-Met agonist activity) of c-Met of the peptide complex of the present invention, the phosphorylation of c-Met was verified. Human A431 cells were cultured in DMEM high glucose, GlutaMAX (registered trademark) Supplement, pyruvate (Thermo Fisher Scientific), containing 10% FBS (Gibco). After cells were detached using Accutase (Innovative cell technologies), they were seeded into a 96-well plate at 10000 cells per well and cultured overnight. The next day, for starvation, the culture medium was changed to DMEM high glucose, GlutaMAX (registered trademark) Supplement, pyruvate (Thermo Fisher Scientific), containing 0.1% BSA (Sigma-Aldrich), and the cells were cultured overnight. Then, the peptide complex synthesized in Example 3 or Recombinant Human HGF Protein (R&D systems) as a control was added, and after 15 minutes of stimulation, cells were lysed in a Lysis Buffer provided in the AlphaLISA (registered trademark) SureFire (registered trademark) Ultra™ Phospho-c-Met (Tyr1234/1235) kit (PerkinElmer). The assay was performed according to the kit protocol, and a SpectraMax (registered trademark) Paradigm (registered trademark) multimode microplate reader (Molecular Devices, LLC.) was used for signal detection. […] In the same manner, the C50 value was calculated by GraphPad Prism as the concentration of peptide showing 50% activity of the signal induced by HGF. […] Further, for a complex (GFs_c-Met-00014336-PEG13 dimer; complex no. 49 in Table 4) of a peptide (SEQ ID NO: 34) and a linker (SEQ ID NO: 37), a graph of c-Met agonist activity is shown in FIG. 1.

T1 sequence (P08581 25-1390): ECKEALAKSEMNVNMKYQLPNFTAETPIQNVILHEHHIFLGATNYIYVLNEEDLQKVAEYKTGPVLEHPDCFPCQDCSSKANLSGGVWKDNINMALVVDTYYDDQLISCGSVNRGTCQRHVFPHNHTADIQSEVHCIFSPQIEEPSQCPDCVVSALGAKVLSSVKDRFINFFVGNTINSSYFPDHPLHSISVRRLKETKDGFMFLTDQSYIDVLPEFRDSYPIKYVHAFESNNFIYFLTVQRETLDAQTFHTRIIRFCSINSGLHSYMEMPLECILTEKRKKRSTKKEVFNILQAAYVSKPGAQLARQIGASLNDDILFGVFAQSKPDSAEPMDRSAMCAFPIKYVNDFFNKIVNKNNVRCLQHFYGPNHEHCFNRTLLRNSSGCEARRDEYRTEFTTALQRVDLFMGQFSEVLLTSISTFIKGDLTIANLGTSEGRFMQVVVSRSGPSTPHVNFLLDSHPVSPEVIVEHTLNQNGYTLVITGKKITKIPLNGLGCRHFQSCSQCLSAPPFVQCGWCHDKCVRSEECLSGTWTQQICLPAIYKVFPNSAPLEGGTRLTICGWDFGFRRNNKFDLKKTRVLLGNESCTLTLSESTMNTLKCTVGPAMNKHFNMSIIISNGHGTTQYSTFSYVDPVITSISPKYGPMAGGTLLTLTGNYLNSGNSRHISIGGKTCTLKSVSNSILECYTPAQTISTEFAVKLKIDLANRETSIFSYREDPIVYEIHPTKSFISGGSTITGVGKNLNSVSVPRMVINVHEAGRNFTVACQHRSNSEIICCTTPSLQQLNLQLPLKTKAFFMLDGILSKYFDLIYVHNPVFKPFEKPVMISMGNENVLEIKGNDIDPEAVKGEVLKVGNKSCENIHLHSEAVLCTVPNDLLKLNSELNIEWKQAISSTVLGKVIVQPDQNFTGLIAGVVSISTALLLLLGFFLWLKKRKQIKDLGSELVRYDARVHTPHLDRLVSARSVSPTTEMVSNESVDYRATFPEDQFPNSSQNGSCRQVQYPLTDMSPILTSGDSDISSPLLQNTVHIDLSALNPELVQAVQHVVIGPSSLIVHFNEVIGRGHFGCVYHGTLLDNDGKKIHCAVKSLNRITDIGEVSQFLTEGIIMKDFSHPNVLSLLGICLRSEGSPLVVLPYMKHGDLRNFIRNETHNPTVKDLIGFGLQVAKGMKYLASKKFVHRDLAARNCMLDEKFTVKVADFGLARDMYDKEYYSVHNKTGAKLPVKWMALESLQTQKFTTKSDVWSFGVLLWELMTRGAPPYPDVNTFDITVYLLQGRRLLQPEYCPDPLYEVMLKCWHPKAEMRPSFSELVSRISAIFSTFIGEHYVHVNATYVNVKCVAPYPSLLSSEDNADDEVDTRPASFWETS

Molecule | C-Met Agonist Activity (2 or 1)
10 ({CH2CO}-[NMeF]VYVS[NMeF]DDD[Ahp′]PSWS[NMeC]; thioether N-15 (inferred); not fully specified; reading uncertain; also: conjugated moiety via linker) [Peptide 10] | 1 (those showing less than 50% activation as 1)
3 ({CH2CO}-FVYVS[NMeF]DDD[Ahp′]PRWS[NMeC]; thioether N-15 (inferred); not fully specified; reading uncertain; also: conjugated moiety via linker) [Peptide 3] | 1 (those showing less than 50% activation as 1)
15 ({CH2CO}-[NMeF]VYVS[NMeF]DDD[Ahp′]PRWV[NMeC]; thioether N-15 (inferred); not fully specified; reading uncertain; also: conjugated moiety via linker) [Peptide 15] | 2 (those showing more than 50% activation were described as 2)

Same assay, conditions: concentration of peptide showing 50% activity of the signal induced by HGF; A431 cells, 15 minutes of stimulation; read-out: C-Met Agonist Activity (C50; nM)

Molecule | EC50 [nM]
CCCCC[C@@H]1NC(=O)[C@H](CC(=O)O)NC(=O)[C@@H]2CCCN2C(=O)[C@H](CC(=O)O)NC(=O)[C@H](Cc2ccccc2)N(C)C(=O)[C@H](CO)NC(=O)[C@H](C(C)C)NC(=O)[C@H](C)NC(=O)[C@H]([C@@H](C)O)NC(=O)[C@H](Cc2ccccc2)N(C)C(=O)CSC[C@@H](C(=O)NCC(=O)N[C@@H](CCCCNC(=O)CCOCCOCCOCCOCCOCCOCCOCCOCCOCCC(=O)NCCCC[C@H](NC(=O)CNC(=O)[C@@H]2CSCC(=O)N(C)[C@@H](Cc3ccccc3)C(=O)N[C@@H]([C@@H](C)O)C(=O)N[C@@H](C)C(=O)N[C@@H](C(C)C)C(=O)N[C@@H](CO)C(=O)N(C)[C@@H](Cc3ccccc3)C(=O)N[C@@H](CC(=O)O)C(=O)N3CCC[C@H]3C(=O)N[C@@H](CC(=O)O)C(=O)N[C@@H](CCCCC)C(=O)N3CCC[C@H]3C(=O)N[C@@H](CCCNC(=N)N)C(=O)N[C@@H](Cc3c[nH]c4ccccc34)C(=O)N[C@@H](C)C(=O)N2C)C(N)=O)C(N)=O)N(C)C(=O)[C@H](C)NC(=O)[C@H](Cc2c[nH]c3ccccc23)NC(=O)[C@H](CCCNC(=N)N)NC(=O)[C@@H]2CCCN2C1=O [Peptide 46] (I: {CH2CO}-[NMeF]TAVS[NMeF]DPD[Ahp(2)]PRWA[NMeC]GK-NH2 / II: {CH2CO}-[NMeF]TAVS[NMeF]DPD[Ahp(2)]PRWA[NMeC]GK-NH2; linker I:17-II:17 via CO(CH2CH2O)9CH2CH2CO (inferred); thioether I:N-I:15, II:N-II:15 (inferred)) | 0.67
CCCCC[C@@H]1NC(=O)[C@H](CC(=O)O)NC(=O)[C@@H]2CCCN2C(=O)[C@H](CC(=O)O)NC(=O)[C@H](Cc2ccccc2)N(C)C(=O)[C@H](CO)NC(=O)[C@H](C(C)C)NC(=O)[C@H](C)NC(=O)[C@H](CCC(=O)O)NC(=O)[C@H](Cc2ccccc2)N(C)C(=O)CSC[C@@H](C(=O)NCC(=O)N[C@@H](CCCCNC(=O)CCOCCOCCOCCOCCOCCOCCOCCOCCOCCOCCOCCOCCOCCOCCOCCOCCOCCC(=O)NCCCC[C@H](NC(=O)CNC(=O)[C@@H]2CSCC(=O)N(C)[C@@H](Cc3ccccc3)C(=O)N[C@@H](CCC(=O)O)C(=O)N[C@@H](C)C(=O)N[C@@H](C(C)C)C(=O)N[C@@H](CO)C(=O)N(C)[C@@H](Cc3ccccc3)C(=O)N[C@@H](CC(=O)O)C(=O)N3CCC[C@H]3C(=O)N[C@@H](CC(=O)O)C(=O)N[C@@H](CCCCC)C(=O)N3CCC[C@H]3C(=O)N[C@@H](CCCNC(=N)N)C(=O)N[C@@H](Cc3c[nH]c4ccccc34)C(=O)N[C@@H](C)C(=O)N2C)C(N)=O)C(N)=O)N(C)C(=O)[C@H](C)NC(=O)[C@H](Cc2c[nH]c3ccccc23)NC(=O)[C@H](CCCNC(=N)N)NC(=O)[C@@H]2CCCN2C1=O [Peptide 27] (I: {CH2CO}-[NMeF]EAVS[NMeF]DPD[Ahp(2)]PRWA[NMeC]GK-NH2 / II: {CH2CO}-[NMeF]EAVS[NMeF]DPD[Ahp(2)]PRWA[NMeC]GK-NH2; linker I:17-II:17 via CO(CH2)2(OCH2CH2)17CO (inferred); thioether I:N-I:15, II:N-II:15 (inferred); C-terminus assumed) | 2.37
CCCCC[C@@H]1NC(=O)[C@H](CC(=O)O)NC(=O)[C@H](CC(=O)O)NC(=O)[C@H](CC(=O)O)NC(=O)[C@H](Cc2ccccc2)N(C)C(=O)[C@H](CO)NC(=O)[C@H](C(C)C)NC(=O)[C@H](Cc2ccc(O)cc2)NC(=O)[C@H](C(C)C)NC(=O)[C@H](Cc2ccccc2)N(C)C(=O)CSC[C@@H](C(=O)NCCOCCOCCOCCOCCOCCOCCOCCOCCOCCOCCOCCOCCC(=O)NCCCC[C@H](NC(=O)CCOCCOCCOCCOCCOCCOCCOCCOCCOCCOCCOCCOCCNC(=O)[C@@H]2CSCC(=O)N(C)[C@@H](Cc3ccccc3)C(=O)N[C@@H](C(C)C)C(=O)N[C@@H](Cc3ccc(O)cc3)C(=O)N[C@@H](C(C)C)C(=O)N[C@@H](CO)C(=O)N(C)[C@@H](Cc3ccccc3)C(=O)N[C@@H](CC(=O)O)C(=O)N[C@@H](CC(=O)O)C(=O)N[C@@H](CC(=O)O)C(=O)N[C@@H](CCCCC)C(=O)N3CCC[C@H]3C(=O)N[C@@H](CCCNC(=N)N)C(=O)N[C@@H](Cc3c[nH]c4ccccc34)C(=O)N[C@@H](C)C(=O)N2C)C(N)=O)N(C)C(=O)[C@H](C)NC(=O)[C@H](Cc2c[nH]c3ccccc23)NC(=O)[C@H](CCCNC(=N)N)NC(=O)[C@@H]2CCCN2C1=O [Peptide 22] (I: {CH2CO}-[NMeF]VYVS[NMeF]DDD[Ahp(2)]PRWA[NMeC][PEG12]K-NH2 / II: {CH2CO}-[NMeF]VYVS[NMeF]DDD[Ahp(2)]PRWA[NMeC][PEG12]; amide I:17-II:C; thioether I:N-I:15, II:N-II:15) | 2.37
CCCCC[C@@H]1NC(=O)[C@H](CC(=O)O)NC(=O)[C@@H]2CCCN2C(=O)[C@H](CC(=O)O)NC(=O)[C@H](Cc2ccccc2)N(C)C(=O)[C@H](CO)NC(=O)[C@H](C(C)C)NC(=O)[C@H](C)NC(=O)[C@H](CCC(=O)O)NC(=O)[C@H](Cc2ccccc2)N(C)C(=O)CSC[C@@H](C(=O)NCC(=O)N[C@@H](CCCCNC(=O)CCOCCOCCOCCOCCOCCOCCOCCOCCOCCC(=O)NCCCC[C@H](NC(=O)CNC(=O)[C@@H]2CSCC(=O)N(C)[C@@H](Cc3ccccc3)C(=O)N[C@@H](CCC(=O)O)C(=O)N[C@@H](C)C(=O)N[C@@H](C(C)C)C(=O)N[C@@H](CO)C(=O)N(C)[C@@H](Cc3ccccc3)C(=O)N[C@@H](CC(=O)O)C(=O)N3CCC[C@H]3C(=O)N[C@@H](CC(=O)O)C(=O)N[C@@H](CCCCC)C(=O)N3CCC[C@H]3C(=O)N[C@@H](CCCNC(=N)N)C(=O)N[C@@H](Cc3c[nH]c4ccccc34)C(=O)N[C@@H](CO)C(=O)N2C)C(N)=O)C(N)=O)N(C)C(=O)[C@H](CO)NC(=O)[C@H](Cc2c[nH]c3ccccc23)NC(=O)[C@H](CCCNC(=N)N)NC(=O)[C@@H]2CCCN2C1=O [Peptide 30] (I: {CH2CO}-[NMeF]EAVS[NMeF]DPD[Ahp(2)]PRWS[NMeC]GK-NH2 / II: {CH2CO}-[NMeF]EAVS[NMeF]DPD[Ahp(2)]PRWS[NMeC]GK-NH2; linker I:17-II:17 via CO(CH2CH2O)9CH2CH2CO (inferred); thioether I:N-I:15, II:N-II:15 (inferred)) | 0.81

The molecules below were run against human c-Met protein (human, UniProt P08581 25-1390) (assay: cell-based or functional assay). Conditions: not given.
Sequence of human c-Met protein (P08581 25-1390): as the sequence (P08581 25-1390) above

Molecule | C-Met Agonist Activity (C50; nM): phospho-c-Met AlphaLISA, A431 cells [nM]
B1 | 0.27
B2 | 0.24
B3 | 0.35

— patent US20250326865A1, “C-MET PROTEIN-BINDING PEPTIDE COMPLEX” (PeptiDream Inc., priority 2021, published 2025)
